The target of this test is recombinant human Top2a ΔC (1-1217), lacking the unstructured C-terminal domain (human, UniProt P11388 1-1217). The test can be described thus: native gel or EMSA.
recombinant human Top2a ΔC (1-1217), lacking the unstructured C-terminal domain, sequence (P11388 1-1217, stated change not applied): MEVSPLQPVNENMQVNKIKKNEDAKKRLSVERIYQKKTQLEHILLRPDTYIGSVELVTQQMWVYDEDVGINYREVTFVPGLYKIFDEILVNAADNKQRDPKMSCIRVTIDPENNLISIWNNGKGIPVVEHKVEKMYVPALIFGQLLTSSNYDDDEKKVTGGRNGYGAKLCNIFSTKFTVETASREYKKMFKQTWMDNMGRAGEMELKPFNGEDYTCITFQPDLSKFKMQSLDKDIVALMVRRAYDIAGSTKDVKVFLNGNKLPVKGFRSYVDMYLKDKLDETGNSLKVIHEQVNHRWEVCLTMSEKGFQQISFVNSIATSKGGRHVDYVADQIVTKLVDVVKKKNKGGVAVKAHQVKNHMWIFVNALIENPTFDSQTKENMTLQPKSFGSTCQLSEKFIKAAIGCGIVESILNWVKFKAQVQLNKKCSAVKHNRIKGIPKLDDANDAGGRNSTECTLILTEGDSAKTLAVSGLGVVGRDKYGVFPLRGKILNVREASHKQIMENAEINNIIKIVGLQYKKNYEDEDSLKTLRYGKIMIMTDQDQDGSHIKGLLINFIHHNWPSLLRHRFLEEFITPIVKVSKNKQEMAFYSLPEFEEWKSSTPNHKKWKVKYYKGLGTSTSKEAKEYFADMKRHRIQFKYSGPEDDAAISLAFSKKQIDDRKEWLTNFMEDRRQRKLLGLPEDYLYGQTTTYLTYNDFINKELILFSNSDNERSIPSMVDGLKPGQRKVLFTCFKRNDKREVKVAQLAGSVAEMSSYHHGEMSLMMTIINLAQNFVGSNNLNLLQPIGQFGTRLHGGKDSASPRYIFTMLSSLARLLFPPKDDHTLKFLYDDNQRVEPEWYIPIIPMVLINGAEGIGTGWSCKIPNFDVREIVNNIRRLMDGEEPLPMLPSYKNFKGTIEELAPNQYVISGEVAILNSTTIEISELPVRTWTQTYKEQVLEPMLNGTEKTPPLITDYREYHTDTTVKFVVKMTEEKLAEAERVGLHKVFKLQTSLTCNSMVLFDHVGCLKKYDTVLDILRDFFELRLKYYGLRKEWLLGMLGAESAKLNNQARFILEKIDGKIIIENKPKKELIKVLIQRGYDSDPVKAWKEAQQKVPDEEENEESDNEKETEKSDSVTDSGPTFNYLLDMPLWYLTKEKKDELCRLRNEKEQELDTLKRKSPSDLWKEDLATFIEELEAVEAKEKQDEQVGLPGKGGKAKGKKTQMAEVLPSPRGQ

B1: human dock II domain, full-length variant (RPA1^1060-1155) with C-terminal His-MBP-tag (domain or fragment)
chain: ADPKKALHHFRAIKKWQSKHPNTLLRRGAFLSYSQKIQEAVKALKLESENRNGRSPGTQEMLRMWYELDEESRRKYQKKAAACPDPSLSVWRPDIY
With B1, the binding result was “binds”.

(Values after doi:10.1101/2021.12.22.473891 (bioRxiv, 2021).)
